# Positions count from the first letter of the chain named.
# B1: SEQ ID NO 61 (designed binder, not shown: small tags and cut ends)
# chain: MLPAPKNLVVSRVTEDSARLSWTAPDAAFDSFQIVYSELWIKGEAIVLTVPGSERSYDLTGLKPGTEYQVPIPGVKGGRNSFPLSAIFTT
# B2: SEQ ID NO 67 (designed binder, not shown: small tags and cut ends)
# chain: MLPAPKNLVVSRVTEDSARLSWTAPDAAFDSFTILYAEQAQFGEAIVLTVPGSERSYDLTGLKPGTEYPITGVKGGTRSGPLSAISTT
# B3: SEQ ID NO 42 (designed binder, not shown: small tags and cut ends)
# chain: MLPAPKNLVVSRVTEDSARLSWTAPDAAFDSFLIPYAETSPSGEAIVLTVPGSERSYDLTGLKPGTEYSVLIHGVKGGDYSEPLSAIFTT
# B4: SEQ ID NO 77 (designed binder, not shown: small tags and cut ends)
# chain: B3 chain with L33P, P35A, T39P, S40R, S42D, D79L, Y80L, E82S
# B5: SEQ ID NO 64 (designed binder, not shown: small tags and cut ends)
# chain: B3 chain with L33Y, P35V, T39P, S40I, S42N, D79R, Y80N, E82D
# B6: SEQ ID NO 46 (designed binder, not shown: small tags and cut ends)
# chain: B3 chain with L33I, T39V, S40R, S42D, D79K, Y80L, E82L
# B7: SEQ ID NO 57 (designed binder, not shown: small tags and cut ends)
# chain: B3 chain with L33A, T39L, P41R, S42N, S69T, D79C, Y80L, E82D
# B8: SEQ ID NO 68 (designed binder, not shown: small tags and cut ends)
# chain: B3 chain with L33I, T39V, S40R, S42D, D79H, Y80L, E82D, F88S
# B9: SEQ ID NO 65 (designed binder, not shown: small tags and cut ends)
# chain: B3 chain with E15K, L33P, P35A, T39P, S40R, S42D, D79L, Y80L, E82S
# B10: SEQ ID NO 44 (designed binder, not shown: small tags and cut ends)
# chain: B3 chain with L33F, T39P, S42T, D79H, Y80L, E82D, F88V
# B11: SEQ ID NO 56 (designed binder, not shown: small tags and cut ends)
# chain: MLPAPKNLVVSRVTEDSARLSWTAPDAAFDSFSIGYVELVLLGEAIVLTVPGSERSYDLTGLKPGTEYDVLIPGVKGGSLSRPLSAIFTT
# B12: SEQ ID NO 71 (designed binder, not shown: small tags and cut ends)
# chain: B11 chain with S33P, G35S, V37L, V40S, L42Y, D69P, L71G, P73A, S79V, L80V
# B13: SEQ ID NO 74 (designed binder, not shown: small tags and cut ends)
# chain: B11 chain with G35T, V37L, L39W, V40W, L41N, D69M, L71T, S79M, L80S, R82Y
# B14: SEQ ID NO 48 (designed binder, not shown: small tags and cut ends)
# chain: MLPAPKNLVVSRVTEDSARLSWTAPDAAFDSFLIYYEEGYLEYYYSGEAIVLTVPGSERSYDLTGLKPGTEYYVGIVGVKGGGLSGPLSAISTT
# B15: SEQ ID NO 1 (designed binder, not shown: small tags and cut ends)
# chain: MLPAPKNLVVSRVTEDSARLSWTAPDAAFDSFPITYIEAVVLGEAIVLTVPGSERSYDLTGLKPGTEYPVGISGVKGGHNSMPLSAIFTT
# B16: SEQ ID NO 39 (designed binder, not shown: small tags and cut ends)
# chain: MLPAPKNLVVSRVTEDSARLSWTAPDAAFDSFPIPYTEPPDPGEAIVLTVPGSERSYDLTGLKPGTEYLVTILGVKGGSMSVPLSAIFTT
# B17: SEQ ID NO 80 (designed binder, not shown: small tags and cut ends)
# chain: MLPAPKNLVVSRVTEDSARLSWTAPDAAFDSFWIDYEEEGVIGEAIYLHVPGSERSYDLTGLKPGTEYVVKIHGVKGGHPSHPLVAVFTT
# B18: SEQ ID NO 54 (designed binder, not shown: small tags and cut ends)
# chain: MLPAPKNLVVSRVTEDSARLSWTAPDAAFDSFAIAYGEHIVIGEAIVLTVPGSERSYDLTGLKPGTEYMVPIAGVKGGPISLPLSAIFTT
# B19: SEQ ID NO 76 (designed binder, not shown: small tags and cut ends)
# chain: B18 chain with A33T, A35E, G37Y, H39N, V41G, M69S, A73V, I80Y, L82H
# B20: SEQ ID NO 59 (designed binder, not shown: small tags and cut ends)
# chain: MLPAPKNLVVSRVTEDSARLSWTAPDAAFDSFVYNEVHWIGEAIVLTVPGSERSYDLTGLKPGTEYFVGIYGVKGGHWSKPLSAIFTT
# B21: SEQ ID NO 37 (designed binder, not shown: small tags and cut ends)
# chain: MLPAPKNLVVSRVTEDSARLSWTTPDAAFDSFPIYYWEVTITGEAIYLSVPGSERSYDLTGLKPGTEYPVDIPGVKGGAASPPLSAIFTT
# B22: SEQ ID NO 40 (designed binder, not shown: small tags and cut ends)
# chain: MLPAPKNLVVSRVTEDSARLSWTAPDAAFDSFTIDYWENRCPGEAIVLTVPGSERSYDLTGLKPGTEYCVWISGVKGGYSSWPLSAIFTT
# B23: SEQ ID NO 66 (designed binder, not shown: small tags and cut ends)
# chain: B22 chain with W37D, N39P, C41S, C69R, W71F, S73W, V75I, Y79D, S80T, W82F
# B24: SEQ ID NO 62 (designed binder, not shown: small tags and cut ends)
# chain: B22 chain with T33K, D35R, W37T, N39T, C41S, P42I, W71P, S73G, Y79D, F88S
# B25: SEQ ID NO 4 (designed binder, not shown: small tags and cut ends)
# chain: MLPAPKNLVVSEVTEDSARLSWQGVARAFDSFLITYRDQIFAGEVIVLTVPGSERSYDLTGLKPGTEYPVWIQGVKGGSPSAPLSAESTT
# B26: SEQ ID NO 41 (designed binder, not shown: small tags and cut ends)
# chain: B25 chain with E12R, D38E, S79H, P80L, A82D, E87I, S88V
# B27: SEQ ID NO 53 (designed binder, not shown: small tags and cut ends)
# chain: B25 chain with K6E, D38E
# B28: SEQ ID NO 7 (designed binder, not shown: small tags and cut ends)
# chain: B25 chain with E12D, D38E, S88F
# B29: SEQ ID NO 70 (designed binder, not shown: small tags and cut ends)
# chain: B25 chain with E12R, D38E, S79D, P80L, A82N, E87I, S88F
# B30: SEQ ID NO 73 (designed binder, not shown: small tags and cut ends)
# chain: B25 chain with D38E
# B31: SEQ ID NO 5 (designed binder, not shown: small tags and cut ends)
# chain: B25 chain with D38E, P69W, W71Y, Q73W, S79K, A82F, S85R, E87G, S88F
# B32: SEQ ID NO 79 (designed binder, not shown: small tags and cut ends)
# chain: MLPAPKNLVVSRVTEDSARLSWTAPDAAFDSFVIEYTERFWSGEAIVLTVPGSERSYDLTGLKPGTEYSVPIDGVKGGQCSTPLSAIFTT
# B33: SEQ ID NO 6 (designed binder, not shown: small tags and cut ends)
# chain: MLPAPKNLVVSRVTEDSARLSWTAPDAAFDSFPIIYMETFSRGEAIVLTVPGSERSYDLTGLKPGTEYRVPIGGVKGGSSSCPLSAIFTT
# B34: SEQ ID NO 10 (designed binder, not shown: small tags and cut ends)
# chain: B33 chain with P33K, I35A, M37I, F40A, S41T, R69V, G73P, S79N, S80T, C82S
# B35: SEQ ID NO 63 (designed binder, not shown: small tags and cut ends)
# chain: MLPAPKNLVVSRVTEDSARLSWTAPDAAFDSFCISYYERMGRGEAIVLTVPGSERSYDLTGLKPGTEYMVYIFGVKGGLNSLPLSAIFTT
# B36: SEQ ID NO 75 (designed binder, not shown: small tags and cut ends)
# chain: MLPAPKNLVVSRVTEDSARLSWTAPDAAFDSFTISYGEEALIGEAIYLRVPGSERSYDLTGLKPGTEYYVHIEGVKGGSWSQPLAAAFTT
# B37: SEQ ID NO 78 (designed binder, not shown: small tags and cut ends)
# chain: MLPAPKNLVVSRVTEDSARLSWTAPDAAFDSFGIGYYEHKRFGEAIQLSVPGSERSYDLTGLKPGTEYEVDIEGVKGGVLSWPLFAEFTT
# B38: SEQ ID NO 72 (designed binder, not shown: small tags and cut ends)
# chain: MLPAPKNLVVSRVTEDSARLSWTAPDAAFDSFTIGYREWYWYGEAIVLTVPGSERSYDLTGLKPGTEYNVPISGVKGGLDSFPLSAIFTT
# B39: SEQ ID NO 43 (designed binder, not shown: small tags and cut ends)
# chain: MLPAPKNLVVSRVTEDSARLSWTAPDAAFDSFMIVYYEYTRFGEAIVLTVPGSERSYDLTGLKPGTEYTVPIDGVKGGGRSSPLSAIFTT
# B40: SEQ ID NO 47 (designed binder, not shown: small tags and cut ends)
# chain: B39 chain with M33G, Y37L, Y39M, T40M, R41V, F42T, T69D, D73L, G79T, S82V
# B41: SEQ ID NO 50 (designed binder, not shown: small tags and cut ends)
# chain: MSLPAPKNLVVSRVTEDSARLSWTAPDAAFDSFTIHYREFQLSGEAIVLTVPGSERSYDLTGLKPGTEYDVPIEGVKGGPGSRPLSAIFTT
# B42: SEQ ID NO 38 (designed binder, not shown: small tags and cut ends)
# chain: MLPAPKNLVVSRVTEDSARLSWTAPDAAFDSFPILYLEHTVRSEAIVLTVPGSERSYDLTDLKPGTEYCVPIDGVKGGLRSRPLSAIFTT
# Molecular target: human serum albumin (human) (UniProt P02768)
# Assay: primary solution ELISA screen
# Sequence of human serum albumin (human) (P02768 25-609 limits assumed): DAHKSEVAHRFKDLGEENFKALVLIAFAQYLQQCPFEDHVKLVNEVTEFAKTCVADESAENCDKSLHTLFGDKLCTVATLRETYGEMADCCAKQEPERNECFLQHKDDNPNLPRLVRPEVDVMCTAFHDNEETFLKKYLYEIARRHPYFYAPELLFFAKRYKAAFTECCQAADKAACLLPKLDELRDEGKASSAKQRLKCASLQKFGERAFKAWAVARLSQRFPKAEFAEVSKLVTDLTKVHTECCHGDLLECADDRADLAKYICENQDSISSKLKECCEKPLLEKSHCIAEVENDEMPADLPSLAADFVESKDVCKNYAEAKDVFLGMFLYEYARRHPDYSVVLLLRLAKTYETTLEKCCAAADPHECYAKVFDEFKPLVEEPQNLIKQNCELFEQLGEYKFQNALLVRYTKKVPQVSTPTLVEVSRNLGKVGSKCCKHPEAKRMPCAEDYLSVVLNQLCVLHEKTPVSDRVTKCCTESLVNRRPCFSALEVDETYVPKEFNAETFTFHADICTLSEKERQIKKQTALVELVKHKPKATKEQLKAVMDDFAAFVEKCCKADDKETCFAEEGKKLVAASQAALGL
row,RLU,Binder
1,13600 RLU,B1
2,14200 RLU,B2
3,1000 RLU,B3
4,10400 RLU,B4
5,6000 RLU,B5
6,8150 RLU,B6
7,38800 RLU,B7
8,38400 RLU,B8
9,16000 RLU,B9
10,56600 RLU,B10
11,19400 RLU,B11
12,27500 RLU,B12
13,14600 RLU,B13
14,115000 RLU,B14
15,15800 RLU,B15
16,51100 RLU,B16
17,33600 RLU,B17
18,11700 RLU,B18
19,16300 RLU,B19
20,16400 RLU,B20
21,28600 RLU,B21

row,RLU,Binder
1,13600 RLU,B22
2,8100 RLU,B23
3,8100 RLU,B24
4,174000 RLU,B25
5,115000 RLU,B26
6,32000 RLU,B27
7,26100 RLU,B28
8,94800 RLU,B29
9,20200 RLU,B30
10,45000 RLU,B31
11,6000 RLU,B32
12,7300 RLU,B33
13,29300 RLU,B34
14,5700 RLU,B35
15,3700 RLU,B36
16,9350 RLU,B37
17,8950 RLU,B38
18,21500 RLU,B39
19,20400 RLU,B40
20,16000 RLU,B41
21,8150 RLU,B42
